Reference: publication PMC9352680, “A comprehensive thermodynamic model for RNA binding by the Saccharomyces cerevisiae Pumilio protein PUF4”
Changes are numbered by the printed parent chain. Names may count otherwise.

T1: PUF4 RNA-binding domain (Saccharomyces cerevisiae, UniProt P25339 537-888)
T1 sequence: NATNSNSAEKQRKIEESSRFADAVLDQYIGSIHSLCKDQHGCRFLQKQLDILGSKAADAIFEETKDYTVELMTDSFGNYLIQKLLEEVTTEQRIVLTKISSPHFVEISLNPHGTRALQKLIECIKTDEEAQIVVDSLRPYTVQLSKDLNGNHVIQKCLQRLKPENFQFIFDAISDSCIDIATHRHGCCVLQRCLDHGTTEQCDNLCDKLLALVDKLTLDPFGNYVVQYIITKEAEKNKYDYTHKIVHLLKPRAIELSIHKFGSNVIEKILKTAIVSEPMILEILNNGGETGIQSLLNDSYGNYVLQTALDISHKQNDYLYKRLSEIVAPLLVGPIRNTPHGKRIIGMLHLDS

B1: Id_ii_S4_P4E.4_K4.3_C4.2_[T-1A]_H4.3_A4.1_F4.1_T4.2_[T11C] (ssRNA)
RNA: UUUGACAACUGAUCGUUCUUUCUCAACACUAUUAGCUUCUUUCUCGAUCAGUUGUCUUU
B2: Id_ii_S4_P4E.4_K4.3_C4.2_H4.3_A4.1_F4.1_T4.2_[G10A]_[T11C] (ssRNA)
RNA: B1 RNA with A25U, G35A
B3: Id_ii_S4_P4E.4_K4.3_C4.2_H4.3_A4.1_F4.1_T4.2_[G10C]_[T11A] (ssRNA)
RNA: B1 RNA with A25U, G35C, C36A
B4: Id_ii_S4_P4E.4_K4.3_C4.2_[T-1A]_H4.3_A4.1_F4.1_T4.2 (ssRNA)
RNA: B1 RNA with C36U
B5: Ib_S1_P5E.1_K5.1_C5.1_H5.1_[T3C]_A5.1_[T6C]_F5.1_T5.1 (ssRNA)
RNA: UCUCUUUGCAUCAUUAUCUCUU
B6: Ib_S1_P5E.1_K5.1_C5.1_H5.1_[T3C]_A5.1_[T5A]_F5.1_T5.1 (ssRNA)
RNA: UCUCUUUGCAAUAUUAUCUCUU
B7: Id_ii_S4_P5E.2_K5.1_C5.2_[C-2G]_[T-1C]_H5.1_A5.1_F5.1_T5.2_[T11A]_[A12T] (ssRNA)
RNA: UUUGACAACUGAUCGUUCUUUCUGCUGUAUUAUUAAUUUCUUUCUCGAUCAGUUGUCUUU
B8: Id_ii_S4_P5E.2_K5.1_C5.2_[C-2T]_[T-1A]_H5.1_A5.1_F5.1_T5.2_[T11G]_[A12T] (ssRNA)
RNA: B7 RNA with G24U, C25A, A36G
B9: Id_ii_S4_P5E.2_K5.1_C5.2_[C-2A]_[T-1C]_H5.1_A5.1_F5.1_T5.2_[A12C] (ssRNA)
RNA: B7 RNA with G24A, A36U, U37C
B10: Id_ii_S4_P5E.2_K5.1_C5.2_[C-2G]_H5.1_A5.1_F5.1_T5.2_[T11A] (ssRNA)
RNA: B7 RNA with C25U, U37A
B11: Id_ii_S4_P5E.3_K5.2_C5.2_[C-2T]_[T-1A]_H5.2_A5.1_F5.1_T5.2_[A12T] (ssRNA)
RNA: B7 RNA with G24U, C25A, G27A, A36U
B12: Id_ii_S4_P5E.2_K5.1_C5.2_[T-1A]_H5.1_A5.1_F5.1_T5.2_[T11A]_[A12T] (ssRNA)
RNA: B7 RNA with G24C, C25A
B13: Id_ii_S4_P5E.2_K5.1_C5.2_[C-2T]_[T-1G]_H5.1_A5.1_F5.1_T5.2_[A12C] (ssRNA)
RNA: B7 RNA with G24U, C25G, A36U, U37C
B14: Id_ii_S4_P5E.2_K5.1_C5.2_[C-2A]_H5.1_A5.1_F5.1_T5.2_[A12G] (ssRNA)
RNA: B7 RNA with G24A, C25U, A36U, U37G
B15: Id_ii_S4_P5E.2_K5.1_C5.2_[C-2T]_[T-1C]_H5.1_A5.1_F5.1_T5.2_[T11A]_[A12G] (ssRNA)
RNA: B7 RNA with G24U, U37G
B16: Id_ii_S4_P5E.2_K5.1_C5.2_[T-1G]_H5.1_A5.1_F5.1_T5.2_[T11G]_[A12T] (ssRNA)
RNA: B7 RNA with G24C, C25G, A36G
B17: Id_ii_S4_P5E.2_K5.1_C5.2_H5.1_A5.1_F5.1_T5.2_[A12C] (ssRNA)
RNA: B7 RNA with G24C, C25U, A36U, U37C
B18: Id_ii_S4_P5E.3_K5.2_C5.2_[C-2T]_[T-1G]_H5.2_A5.1_F5.1_T5.2_[A12T] (ssRNA)
RNA: B7 RNA with G24U, C25G, G27A, A36U
B19: Id_ii_S4_P5E.2_K5.1_C5.2_[T-1A]_H5.1_A5.1_F5.1_T5.2_[T11A] (ssRNA)
RNA: B7 RNA with G24C, C25A, U37A
B20: Id_ii_S4_P5E.2_K5.1_C5.2_[C-2T]_[T-1A]_H5.1_A5.1_F5.1_T5.2_[T11A]_[A12C] (ssRNA)
RNA: B7 RNA with G24U, C25A, U37C
B21: Id_ii_S4_P5E.3_K5.2_C5.2_[C-2T]_[T-1C]_H5.2_A5.1_F5.1_T5.2_[T11C]_[A12G] (ssRNA)
RNA: B7 RNA with G24U, G27A, A36C, U37G
B22: Id_ii_S4_P5E.2_K5.1_C5.2_[C-2T]_[T-1G]_H5.1_A5.1_F5.1_T5.2_[T11G]_[A12C] (ssRNA)
RNA: B7 RNA with G24U, C25G, A36G, U37C
B23: Id_ii_S4_P5E.3_K5.2_C5.2_[C-2T]_[T-1G]_H5.2_A5.1_F5.1_T5.2_[T11A]_[A12C] (ssRNA)
RNA: B7 RNA with G24U, C25G, G27A, U37C
B24: Id_ii_S4_P5E.2_K5.1_C5.2_[C-2T]_[T-1C]_H5.1_A5.1_F5.1_T5.2_[T11A]_[A12C] (ssRNA)
RNA: B7 RNA with G24U, U37C
B25: Id_ii_S4_P5E.2_K5.1_C5.2_[C-2T]_H5.1_A5.1_F5.1_T5.2_[T11A]_[A12T] (ssRNA)
RNA: B7 RNA with G24U, C25U
B26: Id_ii_S4_P5E.3_K5.2_C5.2_[C-2T]_[T-1G]_H5.2_A5.1_F5.1_T5.2_[T11G]_[A12C] (ssRNA)
RNA: B7 RNA with G24U, C25G, G27A, A36G, U37C
B27: Id_ii_S4_P5E.2_K5.1_C5.2_[C-2G]_H5.1_A5.1_F5.1_T5.2_[A12T] (ssRNA)
RNA: B7 RNA with C25U, A36U
B28: Id_ii_S4_P5E.2_K5.1_C5.2_[C-2T]_[T-1G]_H5.1_A5.1_F5.1_T5.2_[T11A]_[A12T] (ssRNA)
RNA: B7 RNA with G24U, C25G
B29: Id_ii_S4_P5E.2_K5.1_C5.2_[C-2A]_[T-1C]_H5.1_A5.1_F5.1_T5.2_[T11A]_[A12T] (ssRNA)
RNA: B7 RNA with G24A
B30: Id_ii_S4_P5E.3_K5.2_C5.2_[C-2T]_H5.2_A5.1_F5.1_T5.2_[T11G]_[A12T] (ssRNA)
RNA: B7 RNA with G24U, C25U, G27A, A36G
B31: Id_ii_S4_P5E.3_K5.2_C5.2_[C-2T]_H5.2_A5.1_F5.1_T5.2_[T11G]_[A12C] (ssRNA)
RNA: B7 RNA with G24U, C25U, G27A, A36G, U37C
B32: Id_ii_S4_P5E.3_K5.2_C5.2_[C-2A]_H5.2_A5.1_F5.1_T5.2_[T11C] (ssRNA)
RNA: B7 RNA with G24A, C25U, G27A, A36C, U37A
B33: Id_ii_S4_P5E.3_K5.2_C5.2_[C-2A]_[T-1C]_H5.2_A5.1_F5.1_T5.2_[T11C]_[A12T] (ssRNA)
RNA: B7 RNA with G24A, G27A, A36C
B34: Id_ii_S4_P5E.2_K5.1_C5.2_H5.1_A5.1_F5.1_T5.2_[T11A]_[A12C] (ssRNA)
RNA: B7 RNA with G24C, C25U, U37C
B35: Id_ii_S4_P5E.3_K5.2_C5.2_[C-2G]_H5.2_A5.1_F5.1_T5.2_[T11C]_[A12G] (ssRNA)
RNA: B7 RNA with C25U, G27A, A36C, U37G
B36: Id_ii_S4_P5E.2_K5.1_C5.2_[T-1G]_H5.1_A5.1_F5.1_T5.2_[T11G]_[A12C] (ssRNA)
RNA: B7 RNA with G24C, C25G, A36G, U37C
B37: Id_ii_S4_P5E.3_K5.2_C5.2_[C-2T]_[T-1G]_H5.2_A5.1_F5.1_T5.2_[T11G]_[A12T] (ssRNA)
RNA: B7 RNA with G24U, C25G, G27A, A36G
B38: Id_ii_S4_P5E.2_K5.1_C5.2_[C-2T]_[T-1G]_H5.1_A5.1_F5.1_T5.2_[T11A]_[A12C] (ssRNA)
RNA: B7 RNA with G24U, C25G, U37C
B39: Id_ii_S4_P5E.3_K5.2_C5.2_[C-2A]_[T-1C]_H5.2_A5.1_F5.1_T5.2_[T11C]_[A12G] (ssRNA)
RNA: B7 RNA with G24A, G27A, A36C, U37G
B40: Id_ii_S4_P5E.2_K5.1_C5.2_[C-2T]_H5.1_A5.1_F5.1_T5.2_[A12C] (ssRNA)
RNA: B7 RNA with G24U, C25U, A36U, U37C
B41: Id_ii_S4_P5E.3_K5.2_C5.2_[C-2G]_H5.2_A5.1_F5.1_T5.2_[A12T] (ssRNA)
RNA: B7 RNA with C25U, G27A, A36U
B42: Id_ii_S4_P5E.2_K5.1_C5.2_[C-2A]_H5.1_A5.1_F5.1_T5.2_[T11A]_[A12C] (ssRNA)
RNA: B7 RNA with G24A, C25U, U37C
B43: Id_ii_S4_P5E.2_K5.1_C5.2_[C-2T]_[T-1A]_H5.1_A5.1_F5.1_T5.2_[T11A] (ssRNA)
RNA: B7 RNA with G24U, C25A, U37A
B44: Id_ii_S4_P5E.2_K5.1_C5.2_[C-2T]_[T-1G]_H5.1_A5.1_F5.1_T5.2_[T11G]_[A12T] (ssRNA)
RNA: B7 RNA with G24U, C25G, A36G
B45: Id_ii_S4_P5E.3_K5.2_C5.2_[C-2A]_[T-1C]_H5.2_A5.1_F5.1_T5.2_[A12C] (ssRNA)
RNA: B7 RNA with G24A, G27A, A36U, U37C
B46: Id_ii_S4_P5E.2_K5.1_C5.2_[T-1A]_H5.1_A5.1_F5.1_T5.2_[A12T] (ssRNA)
RNA: B7 RNA with G24C, C25A, A36U
B47: Id_ii_S4_P5E.3_K5.2_C5.2_[C-2A]_[T-1A]_H5.2_A5.1_F5.1_T5.2_[T11C]_[A12C] (ssRNA)
RNA: B7 RNA with G24A, C25A, G27A, A36C, U37C
B48: Id_ii_S4_P5E.2_K5.1_C5.2_[T-1C]_H5.1_A5.1_F5.1_T5.2_[A12T] (ssRNA)
RNA: B7 RNA with G24C, A36U
B49: Id_ii_S4_P5E.3_K5.2_C5.2_[C-2G]_H5.2_A5.1_F5.1_T5.2_[T11G]_[A12T] (ssRNA)
RNA: B7 RNA with C25U, G27A, A36G
B50: Id_ii_S4_P5E.2_K5.1_C5.2_[C-2G]_[T-1C]_H5.1_A5.1_F5.1_T5.2_[A12C] (ssRNA)
RNA: B7 RNA with A36U, U37C
B51: Ib_S1_P5E.1_K5.1_C5.1_H5.1_[T3C]_A5.1_[A7T]_F5.1_T5.1 (ssRNA)
RNA: UCUCUUUGCAUUUUUAUCUCUU
B52: Ib_S1_P5E.1_K5.1_C5.1_H5.1_[T3C]_A5.1_[A7G]_F5.1_T5.1 (ssRNA)
RNA: UCUCUUUGCAUUGUUAUCUCUU
B53: Ib_S1_P5E.1_K5.1_C5.1_H5.1_[A4G]_A5.1_[T5C]_F5.1_T5.1 (ssRNA)
RNA: UCUCUUUGUGCUAUUAUCUCUU

target: T1, PUF4 RNA-binding domain; assay: Mg; RNA-MaP; 20 mM Na-HEPES pH 7.4, 30 mM KOAc, 0.75 mM MgCl2, 0.1% Tween-20, 5% glycerol, 0.1 mg/mL BSA, 2 mM DTT; 25 C; 0.0125-409.6 nM protein; settings: tags: N-His6-TEV cleaved; C-SNAP kept, Cy3B-labelled; label: tethered on chip by stalled RNA polymerase

Binder	Kd
B1	> 2300 nM
B2	1210 nM
B3	944 nM
B4	> 2300 nM
B5	1980 nM
B6	1370 nM
B7	3.13 nM
B8	4.76 nM
B9	2.14 nM
B10	6.57 nM
B11	23.8 nM
B12	3.49 nM
B13	1.56 nM
B14	4.86 nM
B15	34.5 nM
B16	1.95 nM
B17	1.53 nM
B18	0.445 nM
B19	8.86 nM
B20	9.12 nM
B21	538 nM
B22	2.47 nM
B23	0.672 nM
B24	2.92 nM
B25	2.21 nM
B26	1.12 nM
B27	1.91 nM

Binder	Kd
B28	1.56 nM
B29	2.62 nM
B30	500 nM
B31	416 nM
B32	203 nM
B33	122 nM
B34	3 nM
B35	176 nM
B36	1.94 nM
B37	1 nM
B38	3.09 nM
B39	1150 nM
B40	2.29 nM
B41	28.2 nM
B42	5.14 nM
B43	10.7 nM
B44	1.51 nM
B45	216 nM
B46	2.17 nM
B47	896 nM
B48	1.38 nM
B49	51.7 nM
B50	5.29 nM
B51	1540 nM
B52	2260 nM
B53	28 nM
